# Data: article PMC5356885 (Oncotarget, 2016)
# B1: histidine-tagged recombinant v-Myc bHLH-LZ fragment for NMR (131-amino acid construct, S314-A416) (domain or fragment)
# chain: SNNRKCSSPRTLDSEENDKRRTHNVLERQRRNELKLRFFALRDQIPEVANNEKAPKVVILKKATEYVLSLQSDEHKLIAEKEQLRRRREQLKHNLEQLRNSRA
# B2: tag-free Myc (v-Myc bHLH-LZ fragment without the histidine tag) (domain or fragment)
# chain: B1 chain
# modifications: ^15N-labelled
# Biological target: T1, recombinant CaM for NMR (pETM11-CaM, tag cleaved) (UniProt P62149 1-149)
# T1 construct: also called ^14N-CaM; ^15N-CaM
# Assay: NMR titration
# Details: both partners purified
row,Binder,binding result
1,B1,binds
2,B2,binds
